Assay [1] concerns the target HLA-A*01:01/hβ2m complex (empty, peptide-free or peptide-receptive) (human). Kind of assay: NMR titration.
Assay [2] shares this target. In words: fluorescence polarisation. Background: Polarisation of emitted light reports the rotation of a fluorescent probe.
For assay [3] the target is unchanged. Kind of assay: differential scanning fluorimetry.

Bounds are passed on as bounds.

As for ILDTAGKEEY [NRAS_(55-64) Q61K peptide (…)], the half-life of peptide association (t1/2) in assay [1] is < 3.7 h. The IC50 (as a rule, the midpoint of a concentration-inhibition curve) in assay [2] was found to be 260 nM. The molecule further showed a reduction in the population of empty HLA-A*01:01 after 0.5 h with peptide in assay [3] of 50%.

(Values after article PMC10713829.)
